Measured values from article PMC8131606.

Experiments:
[1] = molecular target: F2 (F221A, F228A) opsin (bovine) (UniProt P02699)
[2] = molecular target: F3 (F220C, F221A, F228A) opsin (bovine) (UniProt P02699)
[3] = molecular target: WT opsin (thermostable bovine opsin with C-terminal 3X-FLAG tag) (bovine) (UniProt P02699)
[4] = molecular target: F1 (F228A) opsin (bovine) (UniProt P02699)

F2 (F221A, F228A) opsin (from UniProt P02699 1-348) (receptor)
ratio of mono-exponential fit constants α(construct)/αWT from scramblase-based analysis of reconstitution into vesicles [1]: 1

F3 (F220C, F221A, F228A) opsin (from UniProt P02699 1-348) (receptor)
ratio of mono-exponential fit constants αF3/αWT from scramblase-based analysis of reconstitution into vesicles [2]: 0.4

WT opsin (thermostable bovine opsin with C-terminal 3X-FLAG tag) (from UniProt P02699 1-348) (receptor)
mono-exponential fit constant (α) of p(≥ 1) scramblase versus PPR* after reconstitution of purified opsin into vesicles [3]: 0.25

F1 (F228A) opsin (from UniProt P02699 1-348) (receptor)
ratio of mono-exponential fit constants α(construct)/αWT from scramblase-based analysis of reconstitution into vesicles [4]: 1
